Where a chain is given by its changes, count along the chain named. Numbers in names are those of the source.
T1: GST-ΔIBB-importin α3 (human, UniProt O00629 59-521)
T1 construct: human importin α3 lacking the N-terminal IBB domain; also called GST-tagged importin α3 (lacking the IBB); source: E. coli BL21(DE3) AI or BL21(DE3), pGEX-6P, purified (glutathione resin); not shown: GST, N-terminal, kept
T1 sequence (looked up): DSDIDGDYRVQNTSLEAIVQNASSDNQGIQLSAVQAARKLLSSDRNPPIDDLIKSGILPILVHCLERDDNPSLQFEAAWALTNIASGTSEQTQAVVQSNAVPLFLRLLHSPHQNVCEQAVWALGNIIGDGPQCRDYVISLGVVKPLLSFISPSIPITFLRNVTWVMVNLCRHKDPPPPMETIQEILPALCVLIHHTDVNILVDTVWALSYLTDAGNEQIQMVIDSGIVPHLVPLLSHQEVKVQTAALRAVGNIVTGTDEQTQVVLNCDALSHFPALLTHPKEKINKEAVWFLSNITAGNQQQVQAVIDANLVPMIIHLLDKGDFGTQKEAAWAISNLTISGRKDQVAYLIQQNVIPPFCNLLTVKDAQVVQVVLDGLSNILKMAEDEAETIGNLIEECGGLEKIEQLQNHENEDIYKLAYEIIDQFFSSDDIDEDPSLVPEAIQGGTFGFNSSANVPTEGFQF

T2: ΔIBB-Kap60 (co-expressed with yeast GST-RCC1) (Saccharomyces cerevisiae, UniProt Q02821 66-542)
T2 construct: yeast importin α Kap60 lacking the N-terminal IBB domain; the methods say ΔIBB-Kap60; source: E. coli BL21-AI, co-expressed with yeast GST-RCC1, purified as complex (glutathione beads, PreScission, SEC)
T2 sequence (looked up): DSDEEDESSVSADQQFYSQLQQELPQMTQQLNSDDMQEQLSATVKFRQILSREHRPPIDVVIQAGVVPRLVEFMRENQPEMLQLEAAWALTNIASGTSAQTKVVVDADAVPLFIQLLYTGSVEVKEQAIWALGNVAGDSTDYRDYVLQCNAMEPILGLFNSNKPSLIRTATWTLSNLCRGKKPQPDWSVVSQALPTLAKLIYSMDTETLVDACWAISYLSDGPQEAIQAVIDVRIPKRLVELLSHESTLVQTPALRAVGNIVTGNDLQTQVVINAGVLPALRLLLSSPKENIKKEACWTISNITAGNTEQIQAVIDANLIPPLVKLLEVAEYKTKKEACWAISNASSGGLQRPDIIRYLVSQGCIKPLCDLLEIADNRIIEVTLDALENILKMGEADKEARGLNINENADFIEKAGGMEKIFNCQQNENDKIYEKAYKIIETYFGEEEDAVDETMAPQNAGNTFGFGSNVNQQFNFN

B1: ΔIBB-importin α3 (as used for ITC) (domain or fragment)
chain: not shown
modifications: Limits not given; taken from the ΔIBB-importin α3 entity of PDB 4UAE (Met + 420 residues, starting VQNTS), which fits the expected complex MW of ~91.2 kDa. A construct running to 521 is possible.
B2: Δ5-RCC1 (domain or fragment, human, UniProt P18754 6-421, looked up)
chain: IAKRRSPPADAIPKSKKVKVSHRSHSTEPGLVLTLGQGDVGQLGLGENVMERKKPALVSIPEDVVQAEAGGMHTVCLSKSGQVYSFGCNDEGALGRDTSVEGSEMVPGKVELQEKVVQVSAGDSHTAALTDDGRVFLWGSFRDNNGVIGLLEPMKKSMVPVQVQLDVPVVKVASGNDHLVMLTADGDLYTLGCGEQGQLGRVPELFANRGGRQGLERLLVPKCVMLKSRGSRGHVRFQDAFCGAYFTFAISHEGHVYGFGLSNYHQLGTPGTESCFIPQNLTSFKNSTKSWVGFSGGQHHTVCMDSEGKAYSLGRAEYGRLGLGEGAEEKSIPTLISRLPAVSSVACGASVGYAVTKDGRVFAWGMGTNYQLGTGQDEDAWSPVEMMGKQLENRVVLSVSSGGQHTVLLVKDKEQS
notes: human RCC1 (RCC1α) with the first five residues deleted; source: E. coli BL21(DE3) AI or BL21(DE3), purified
B3: Δ10-RCC1 (domain or fragment, human, UniProt P18754 11-421, looked up)
chain: SPPADAIPKSKKVKVSHRSHSTEPGLVLTLGQGDVGQLGLGENVMERKKPALVSIPEDVVQAEAGGMHTVCLSKSGQVYSFGCNDEGALGRDTSVEGSEMVPGKVELQEKVVQVSAGDSHTAALTDDGRVFLWGSFRDNNGVIGLLEPMKKSMVPVQVQLDVPVVKVASGNDHLVMLTADGDLYTLGCGEQGQLGRVPELFANRGGRQGLERLLVPKCVMLKSRGSRGHVRFQDAFCGAYFTFAISHEGHVYGFGLSNYHQLGTPGTESCFIPQNLTSFKNSTKSWVGFSGGQHHTVCMDSEGKAYSLGRAEYGRLGLGEGAEEKSIPTLISRLPAVSSVACGASVGYAVTKDGRVFAWGMGTNYQLGTGQDEDAWSPVEMMGKQLENRVVLSVSSGGQHTVLLVKDKEQS
notes: human RCC1 (RCC1α) lacking the entire minor NLS box; source: E. coli BL21(DE3) AI or BL21(DE3), purified
B4: RCC1 (human, wild type, free protein) (natural protein, UniProt P18754 1-421, looked up)
chain: MSPKRIAKRRSPPADAIPKSKKVKVSHRSHSTEPGLVLTLGQGDVGQLGLGENVMERKKPALVSIPEDVVQAEAGGMHTVCLSKSGQVYSFGCNDEGALGRDTSVEGSEMVPGKVELQEKVVQVSAGDSHTAALTDDGRVFLWGSFRDNNGVIGLLEPMKKSMVPVQVQLDVPVVKVASGNDHLVMLTADGDLYTLGCGEQGQLGRVPELFANRGGRQGLERLLVPKCVMLKSRGSRGHVRFQDAFCGAYFTFAISHEGHVYGFGLSNYHQLGTPGTESCFIPQNLTSFKNSTKSWVGFSGGQHHTVCMDSEGKAYSLGRAEYGRLGLGEGAEEKSIPTLISRLPAVSSVACGASVGYAVTKDGRVFAWGMGTNYQLGTGQDEDAWSPVEMMGKQLENRVVLSVSSGGQHTVLLVKDKEQS
notes: human RCC1, predominant isoform RCC1α, synthetic gene; also called free RCC1; WT RCC1; source: E. coli BL21(DE3) AI or BL21(DE3), purified
B5: GST-RCC1 (full-length human RCC1, wild type) (natural protein, UniProt P18754 1-421, looked up)
chain: B4 chain
notes: human RCC1, predominant isoform RCC1α, synthetic gene (GenScript); β-propeller printed as residues 30–421; Used in the syringe for ITC (methods say GST-RCC1); also called full length GST-RCC1; WT GST-RCC1; source: E. coli BL21(DE3) AI or BL21(DE3), pGEX-6P, glutathione resin; not shown: GST, N-terminal, kept
B6: RCC1 (human, cleaved from GST, in the purified importin α3:RCC1 complex) (natural protein, UniProt P18754 1-421, looked up)
chain: B4 chain
notes: human RCC1, predominant isoform RCC1α, synthetic gene; also called RCC1α; human RCC1; source: E. coli BL21-AI, co-expressed with ΔIBB-importin α3, cleaved off glutathione beads with PreScission Protease, SEC; not shown: GST, N-terminal, cleaved
B7: RCC1-S11E (natural protein, human, UniProt P18754 1-421, looked up)
chain: B4 chain with S11E
notes: human RCC1 (RCC1α) with the phospho-mimetic S11E; also called phospho-mimetic RCC1-S11E; source: E. coli BL21(DE3) AI or BL21(DE3), purified
B8: RCC1-K21A (natural protein, human, UniProt P18754 1-421, looked up)
chain: B4 chain with K21A
notes: human RCC1 (RCC1α) with K21A; also called P2 mutant; source: E. coli BL21(DE3) AI or BL21(DE3), purified
B9: RCC1-R9A (natural protein, human, UniProt P18754 1-421, looked up)
chain: B4 chain with R9A
notes: human RCC1 (RCC1α) with R9A; also called P2′ mutant; source: E. coli BL21(DE3) AI or BL21(DE3), purified
B10: RCC1-R9A/K21A (natural protein, human, UniProt P18754 1-421, looked up)
chain: B4 chain with R9A, K21A
notes: human RCC1 (RCC1α) with R9A and K21A; also called P2/P2′ double mutant; source: E. coli BL21(DE3) AI or BL21(DE3), purified
B11: yRCC1 (yeast RCC1, cleaved from GST, in the purified Kap60:yRCC1 complex) (natural protein, Saccharomyces cerevisiae (strain S288C))
chain: MVKRTVATNGDASGAHRAKKMSKTHASHIINAQEDYKHMYLSVQPLDIFCWGTGSMCELGLGPLAKNKEVKRPRLNPFLPRDEAKIISFAVGGMHTLALDEESNVWSWGCNDVGALGRDTSNAKEQLKDMDADDSSDDEDGDLNELESTPAKIPRESFPPLAEGHKVVQLAATDNMSCALFSNGEVYAWGTFRCNEGILGFYQDKIKIQKTPWKVPTFSKYNIVQLAPGKDHILFLDEEGMVFAWGNGQQNQLGRKVMERFRLKTLDPRPFGLRHVKYIASGENHCFALTKDNKLVSWGLNQFGQCGVSEDVEDGALVTKPKRLALPDNVVIRSIAAGEHHSLILSQDGDLYSCGRLDMFEVGIPKDNLPEYTYKDVHGKARAVPLPTKLNNVPKFKSVAAGSHHSVAVAQNGIAYSWGFGETYAVGLGPFEDDTEVPTRIKNTATQDHNIILVGCGGQFSVSGGVKLSDEDAEKRADEMDD
notes: Saccharomyces cerevisiae RCC1 homolog Prp20p, amplified from a genomic library of strain S288C; also called Prp20p; source: E. coli BL21-AI, co-expressed with ΔIBB-Kap60, cleaved off glutathione beads with PreScission Protease, SEC; not shown: GST, N-terminal, cleaved

How the values were obtained:
Conditions in all cases: both partners purified
[1] = target: B5; experiment: ITC; nano-ITC, 20 °C; GST-RCC1 (300 µM) injected in 2.0 µl increments into 195 µl of ΔIBB-importin α3 or α1 (100 µM); 20 mM Tris-HCl pH 8.0, 150 mM NaCl, 5 mM BME, 0.1 mM PMSF; single set of binding sites model; triplicate
GST-ΔIBB-importin α3 = target: T1, GST-ΔIBB-importin α3; experiment: pull-down; purified GST-ΔIBB-importin α3 or GST-ΔIBB-Kap60 (1 µM) pre-incubated with RCC1/yRCC1 (0.75 µM) ~60 min at 4 °C, then bound to glutathione beads, washed three times, eluted with 25 mM reduced glutathione; SDS-PAGE, Coomassie, quantified in triplicate, WT = 100%
[2] = target: B1; experiment: ITC; nano-ITC, 20 °C; GST-RCC1 (300 µM) injected in 2.0 µl increments into 195 µl of ΔIBB-importin α3 or α1 (100 µM); 20 mM Tris-HCl pH 8.0, 150 mM NaCl, 5 mM BME, 0.1 mM PMSF; single set of binding sites model; triplicate
[3] = target: untagged ΔIBB-importin α3 (co-expressed with GST-RCC1) (human, UniProt O00629 1-521, Limits not given; taken from the ΔIBB-importin α3 entity of PDB 4UAE, which fits the expected complex MW of ~91.2 kDa. The 5TBK entity lists the full-length sequence although the IBB was deleted.); experiment: SAXS; purified importin α3:RCC1 complex in GF buffer, 3.5–7.5 mg ml^-1, physiological salt
[4] = target: T2, ΔIBB-Kap60 (co-expressed with yeast …); experiment: SEC-SAXS; Kap60:yRCC1 complex at 5.0 mg ml^-1 on Superose 12 10/300 GL; 20 mM Tris-HCl pH 7.5, 150 mM NaCl, 5% glycerol, 3 mM BME; frames 710–750

| reduction of binding relative to WT RCC1 (GST-ΔIBB-importin α3) | also measured | Binder |
| --- | --- | --- |
|  | Kd [1]: 620 ± 100 nM | B1 |
| ~10% |  | B2 |
| ~60% |  | B3 |
|  | stoichiometry N (GST-ΔIBB-importin α3): 1 | B4 |
|  | stoichiometry N [2]: < 1 | B5 |
|  | stoichiometry N [3]: 1 | B6 |
| ~10% |  | B7 |
| 25% |  | B8 |
| 25% |  | B9 |
| ~85% |  | B10 |
|  | stoichiometry N [4]: 1 | B11 |

Reference: paper PMC5645467, “Three-dimensional context rather than NLS amino acid sequence determines importin α subtype specificity for RCC1” (Nature Communications, 2017)
